Test results as given in patent US20130005646A1 (Novo Nordisk, published 2013).
Starred links: 1 amine or outer side, 2 acyl side, 3 side chain; linkers in the order of their positions; H or OH if unused. Positions of bridges follow the written chain, without caps; N, C: chain ends. Groups on a side chain read outwards from the residue. No end group written: not given here. *: point of attachment. C20 diacid = O=C(O)CCCCCCCCCCCCCCCCCCC(=O)*; γGlu = O=C(O)[C@H](CCC(=O)[*:2])N[*:1]

T1: human calcitonin (a) receptor (human, UniProt P30988 25-474)
T1 sequence (looked up): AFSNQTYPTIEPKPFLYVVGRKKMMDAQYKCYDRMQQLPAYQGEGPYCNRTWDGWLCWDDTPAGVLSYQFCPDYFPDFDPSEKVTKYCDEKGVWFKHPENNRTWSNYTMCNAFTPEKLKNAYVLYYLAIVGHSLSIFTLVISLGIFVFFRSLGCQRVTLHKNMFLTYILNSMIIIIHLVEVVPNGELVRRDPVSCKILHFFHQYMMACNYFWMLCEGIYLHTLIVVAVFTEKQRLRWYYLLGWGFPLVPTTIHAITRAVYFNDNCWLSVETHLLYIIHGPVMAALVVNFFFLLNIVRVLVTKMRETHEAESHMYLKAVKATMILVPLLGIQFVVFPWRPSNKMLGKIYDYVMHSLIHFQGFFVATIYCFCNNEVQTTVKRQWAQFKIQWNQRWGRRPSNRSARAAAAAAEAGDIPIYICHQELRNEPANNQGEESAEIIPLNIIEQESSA

T2: human amylin 3(a) receptor (human calcitonin receptor + RAMP-3) (human, UniProt P30988 25-474; O60896 24-148)
T2 sequence (looked up) 1: T1 sequence (looked up)
T2 sequence (looked up) 2: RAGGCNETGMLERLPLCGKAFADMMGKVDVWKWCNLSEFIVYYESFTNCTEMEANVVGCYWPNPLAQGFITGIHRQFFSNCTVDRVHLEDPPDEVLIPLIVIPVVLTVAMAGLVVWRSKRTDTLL

B1: N-alpha-[(S)-4-Carboxy-4-(19-carboxynonadecanoylamino)butyryl]-[Arg17,Pro37]-pramlintide (peptide)
peptide: {C20 diacid-γGlu}-KCNTATCATQRLANFLRHSSNNFGPILPPTNVGSNTP-NH2
modifications: disulfide 2-7
SMILES: CC[C@H](C)[C@H](NC(=O)[C@@H]1CCCN1C(=O)CNC(=O)[C@H](Cc1ccccc1)NC(=O)[C@H](CC(N)=O)NC(=O)[C@H](CC(N)=O)NC(=O)[C@H](CO)NC(=O)[C@H](CO)NC(=O)[C@H](Cc1c[nH]cn1)NC(=O)[C@H](CCCNC(=N)N)NC(=O)[C@H](CC(C)C)NC(=O)[C@H](Cc1ccccc1)NC(=O)[C@H](CC(N)=O)NC(=O)[C@H](C)NC(=O)[C@H](CC(C)C)NC(=O)[C@H](CCCNC(=N)N)NC(=O)[C@H](CCC(N)=O)NC(=O)[C@@H](NC(=O)[C@H](C)NC(=O)[C@@H]1CSSC[C@H](NC(=O)[C@H](CCCCN)NC(=O)CC[C@H](NC(=O)CCCCCCCCCCCCCCCCCCC(=O)O)C(=O)O)C(=O)N[C@@H](CC(N)=O)C(=O)N[C@@H]([C@@H](C)O)C(=O)N[C@@H](C)C(=O)N[C@@H]([C@@H](C)O)C(=O)N1)[C@@H](C)O)C(=O)N[C@@H](CC(C)C)C(=O)N1CCC[C@H]1C(=O)N1CCC[C@H]1C(=O)N[C@H](C(=O)N[C@@H](CC(N)=O)C(=O)N[C@H](C(=O)NCC(=O)N[C@@H](CO)C(=O)N[C@@H](CC(N)=O)C(=O)N[C@H](C(=O)N1CCC[C@H]1C(N)=O)[C@@H](C)O)C(C)C)[C@@H](C)O
B2: N-epsilon1-[(S)-4-Carboxy-4-(19-carboxynonadecanoylamino)butyryl]-[Glu14,His17,Gln21,Ala25,Pro26,Ser28,Ser29,Pro37]-pramlintide (peptide)
peptide: K([γGlu-C20 diacid])CNTATCATQRLAEFLHHSSQNFGAPLSSTNVGSNTP-NH2
modifications: disulfide 2-7; N-terminus assumed
SMILES: CC(C)C[C@H](NC(=O)[C@H](CCCNC(=N)N)NC(=O)[C@H](CCC(N)=O)NC(=O)[C@@H](NC(=O)[C@H](C)NC(=O)[C@@H]1CSSC[C@H](NC(=O)[C@@H](N)CCCCNC(=O)CC[C@H](NC(=O)CCCCCCCCCCCCCCCCCCC(=O)O)C(=O)O)C(=O)N[C@@H](CC(N)=O)C(=O)N[C@@H]([C@@H](C)O)C(=O)N[C@@H](C)C(=O)N[C@@H]([C@@H](C)O)C(=O)N1)[C@@H](C)O)C(=O)N[C@@H](C)C(=O)N[C@@H](CCC(=O)O)C(=O)N[C@@H](Cc1ccccc1)C(=O)N[C@@H](CC(C)C)C(=O)N[C@@H](Cc1c[nH]cn1)C(=O)N[C@@H](Cc1c[nH]cn1)C(=O)N[C@@H](CO)C(=O)N[C@@H](CO)C(=O)N[C@@H](CCC(N)=O)C(=O)N[C@@H](CC(N)=O)C(=O)N[C@@H](Cc1ccccc1)C(=O)NCC(=O)N[C@@H](C)C(=O)N1CCC[C@H]1C(=O)N[C@@H](CC(C)C)C(=O)N[C@@H](CO)C(=O)N[C@@H](CO)C(=O)N[C@H](C(=O)N[C@@H](CC(N)=O)C(=O)N[C@H](C(=O)NCC(=O)N[C@@H](CO)C(=O)N[C@@H](CC(N)=O)C(=O)N[C@H](C(=O)N1CCC[C@H]1C(N)=O)[C@@H](C)O)C(C)C)[C@@H](C)O
B3: N-alpha-[(S)-4-Carboxy-4-(19-carboxynonadecanoylamino)butyryl]-[Arg14,Arg17,Pro37]-pramlintide (peptide)
peptide: {C20 diacid-γGlu}-KCNTATCATQRLARFLRHSSNNFGPILPPTNVGSNTP-NH2
modifications: disulfide 2-7
SMILES: CC[C@H](C)[C@H](NC(=O)[C@@H]1CCCN1C(=O)CNC(=O)[C@H](Cc1ccccc1)NC(=O)[C@H](CC(N)=O)NC(=O)[C@H](CC(N)=O)NC(=O)[C@H](CO)NC(=O)[C@H](CO)NC(=O)[C@H](Cc1c[nH]cn1)NC(=O)[C@H](CCCNC(=N)N)NC(=O)[C@H](CC(C)C)NC(=O)[C@H](Cc1ccccc1)NC(=O)[C@H](CCCNC(=N)N)NC(=O)[C@H](C)NC(=O)[C@H](CC(C)C)NC(=O)[C@H](CCCNC(=N)N)NC(=O)[C@H](CCC(N)=O)NC(=O)[C@@H](NC(=O)[C@H](C)NC(=O)[C@@H]1CSSC[C@H](NC(=O)[C@H](CCCCN)NC(=O)CC[C@H](NC(=O)CCCCCCCCCCCCCCCCCCC(=O)O)C(=O)O)C(=O)N[C@@H](CC(N)=O)C(=O)N[C@@H]([C@@H](C)O)C(=O)N[C@@H](C)C(=O)N[C@@H]([C@@H](C)O)C(=O)N1)[C@@H](C)O)C(=O)N[C@@H](CC(C)C)C(=O)N1CCC[C@H]1C(=O)N1CCC[C@H]1C(=O)N[C@H](C(=O)N[C@@H](CC(N)=O)C(=O)N[C@H](C(=O)NCC(=O)N[C@@H](CO)C(=O)N[C@@H](CC(N)=O)C(=O)N[C@H](C(=O)N1CCC[C@H]1C(N)=O)[C@@H](C)O)C(C)C)[C@@H](C)O
B4: N-alpha-[(S)-4-Carboxy-4-(19-carboxynonadecanoylamino)butyryl]-Glu-Glu-[Arg1,Glu14,Arg17,Pro37]-pramlintide (peptide)
peptide: {C20 diacid-γGlu}-EERCNTATCATQRLAEFLRHSSNNFGPILPPTNVGSNTP-NH2
modifications: disulfide 4-9
SMILES: CC[C@H](C)[C@H](NC(=O)[C@@H]1CCCN1C(=O)CNC(=O)[C@H](Cc1ccccc1)NC(=O)[C@H](CC(N)=O)NC(=O)[C@H](CC(N)=O)NC(=O)[C@H](CO)NC(=O)[C@H](CO)NC(=O)[C@H](Cc1c[nH]cn1)NC(=O)[C@H](CCCNC(=N)N)NC(=O)[C@H](CC(C)C)NC(=O)[C@H](Cc1ccccc1)NC(=O)[C@H](CCC(=O)O)NC(=O)[C@H](C)NC(=O)[C@H](CC(C)C)NC(=O)[C@H](CCCNC(=N)N)NC(=O)[C@H](CCC(N)=O)NC(=O)[C@@H](NC(=O)[C@H](C)NC(=O)[C@@H]1CSSC[C@H](NC(=O)[C@H](CCCNC(=N)N)NC(=O)[C@H](CCC(=O)O)NC(=O)[C@H](CCC(=O)O)NC(=O)CC[C@H](NC(=O)CCCCCCCCCCCCCCCCCCC(=O)O)C(=O)O)C(=O)N[C@@H](CC(N)=O)C(=O)N[C@@H]([C@@H](C)O)C(=O)N[C@@H](C)C(=O)N[C@@H]([C@@H](C)O)C(=O)N1)[C@@H](C)O)C(=O)N[C@@H](CC(C)C)C(=O)N1CCC[C@H]1C(=O)N1CCC[C@H]1C(=O)N[C@H](C(=O)N[C@@H](CC(N)=O)C(=O)N[C@H](C(=O)NCC(=O)N[C@@H](CO)C(=O)N[C@@H](CC(N)=O)C(=O)N[C@H](C(=O)N1CCC[C@H]1C(N)=O)[C@@H](C)O)C(C)C)[C@@H](C)O
B5: N-alpha-[(S)-4-Carboxy-4-(19-carboxynonadecanoylamino)butyryl]-Gly-[Arg1,Glu14,Arg17,Pro37]-pramlintide (peptide)
peptide: {C20 diacid-γGlu}-GRCNTATCATQRLAEFLRHSSNNFGPILPPTNVGSNTP-NH2
modifications: disulfide 3-8
SMILES: CC[C@H](C)[C@H](NC(=O)[C@@H]1CCCN1C(=O)CNC(=O)[C@H](Cc1ccccc1)NC(=O)[C@H](CC(N)=O)NC(=O)[C@H](CC(N)=O)NC(=O)[C@H](CO)NC(=O)[C@H](CO)NC(=O)[C@H](Cc1c[nH]cn1)NC(=O)[C@H](CCCNC(=N)N)NC(=O)[C@H](CC(C)C)NC(=O)[C@H](Cc1ccccc1)NC(=O)[C@H](CCC(=O)O)NC(=O)[C@H](C)NC(=O)[C@H](CC(C)C)NC(=O)[C@H](CCCNC(=N)N)NC(=O)[C@H](CCC(N)=O)NC(=O)[C@@H](NC(=O)[C@H](C)NC(=O)[C@@H]1CSSC[C@H](NC(=O)[C@H](CCCNC(=N)N)NC(=O)CNC(=O)CC[C@H](NC(=O)CCCCCCCCCCCCCCCCCCC(=O)O)C(=O)O)C(=O)N[C@@H](CC(N)=O)C(=O)N[C@@H]([C@@H](C)O)C(=O)N[C@@H](C)C(=O)N[C@@H]([C@@H](C)O)C(=O)N1)[C@@H](C)O)C(=O)N[C@@H](CC(C)C)C(=O)N1CCC[C@H]1C(=O)N1CCC[C@H]1C(=O)N[C@H](C(=O)N[C@@H](CC(N)=O)C(=O)N[C@H](C(=O)NCC(=O)N[C@@H](CO)C(=O)N[C@@H](CC(N)=O)C(=O)N[C@H](C(=O)N1CCC[C@H]1C(N)=O)[C@@H](C)O)C(C)C)[C@@H](C)O
B6: N-alpha-[(S)-4-Carboxy-4-(19-carboxynonadecanoylamino)butyryl]-Glu-[Arg1,Glu14,Arg17,Pro37]-pramlintide (peptide)
peptide: {C20 diacid-γGlu}-ERCNTATCATQRLAEFLRHSSNNFGPILPPTNVGSNTP-NH2
modifications: disulfide 3-8
SMILES: CC[C@H](C)[C@H](NC(=O)[C@@H]1CCCN1C(=O)CNC(=O)[C@H](Cc1ccccc1)NC(=O)[C@H](CC(N)=O)NC(=O)[C@H](CC(N)=O)NC(=O)[C@H](CO)NC(=O)[C@H](CO)NC(=O)[C@H](Cc1c[nH]cn1)NC(=O)[C@H](CCCNC(=N)N)NC(=O)[C@H](CC(C)C)NC(=O)[C@H](Cc1ccccc1)NC(=O)[C@H](CCC(=O)O)NC(=O)[C@H](C)NC(=O)[C@H](CC(C)C)NC(=O)[C@H](CCCNC(=N)N)NC(=O)[C@H](CCC(N)=O)NC(=O)[C@@H](NC(=O)[C@H](C)NC(=O)[C@@H]1CSSC[C@H](NC(=O)[C@H](CCCNC(=N)N)NC(=O)[C@H](CCC(=O)O)NC(=O)CC[C@H](NC(=O)CCCCCCCCCCCCCCCCCCC(=O)O)C(=O)O)C(=O)N[C@@H](CC(N)=O)C(=O)N[C@@H]([C@@H](C)O)C(=O)N[C@@H](C)C(=O)N[C@@H]([C@@H](C)O)C(=O)N1)[C@@H](C)O)C(=O)N[C@@H](CC(C)C)C(=O)N1CCC[C@H]1C(=O)N1CCC[C@H]1C(=O)N[C@H](C(=O)N[C@@H](CC(N)=O)C(=O)N[C@H](C(=O)NCC(=O)N[C@@H](CO)C(=O)N[C@@H](CC(N)=O)C(=O)N[C@H](C(=O)N1CCC[C@H]1C(N)=O)[C@@H](C)O)C(C)C)[C@@H](C)O

How the values were obtained:
[1] = target: T1, human calcitonin (a) receptor; assay: cell-based or functional assay
[2] = target: T2, human amylin 3(a) receptor (human …); assay: cell-based or functional assay

Binder | CTa receptor human EC50 [1] [pM] | Amylin receptor human EC50 [2] [pM]
B1 | 57 | 53
B2 | 67.5 | 209
B3 | 453 | 129
B4 | 526 | 313
B5 | 41 | 43
B6 | 168 | 66
